Source: patent US20240245805A1 (Orna Therapeutics, Inc., priority 2020, published 2024)

Tested on: HEK293 cells
Type: cell-based, human
Details: circular RNA encoding Gluc with the listed IRES (UTR truncated to 675 nt) transfected into HEK293 cells; supernatant after 24 hours

| Molecule | Expression (luminescence from secreted Gluc protein) |
| --- | --- |
| Jingmen picorna-like virus (nucleic acid, source: /note="Description of Unknown: Jingmen picorna-like virus sequence") DNA: TGTGTTTTTGTCAAGATAATTGTTCTGTGATTAACAGTGATTGTGGTTCGTGTAATGCGACGCAGTCAAATGCTAGTTTTGATGAAGTGTATGAGAGAGTGGAAAACTTATCTCATAAGAAGATTGAAGAGTGTGTAGATCAGGCTATTGATCGAGCTTCTAAGCTTCGTGATTACAAGCTTAATGTTCACAATGGCTCCCGACGGGAATCATCTGATCCTCTCTTTATTTCGCCCCATTCGTTGTTATCGCTTGGGGTATCTAAGTTTGTTGCGTTTGAGCAGCATCACAGTTTCGCTTCAGTTGAGTCTCTGAAGTTGCTTGCTCTGTCT | 9.32E+04 |
| Picornavirales Tottori-HG1 (nucleic acid, lipid formulation; source: /note="Description of Unknown: Picornavirales Tottori-HG1 sequence") DNA: AGCCATGAACTAGTGTGCGATTCCCACAGTGTTGGTCGAAAGCCCCGCACTGTCTACTCGCATATTTGACTCCAGTCCTTCCGCAGCCAGCGGTTAGGTTCTGGTTAAAGTGCATTATGTGCACGGCGCCACGCAGAACTGCCAGAAATGGTAAGCTGCGCCCAACGCCAACGGTTTGTGTATCCCGTTAGTCACACGTTTACAGCTGTTCGTTAACAGTAGGGTTTTGTCGACCCGGACCCCTTAATGCGCGCGAATTCAACCGCGCCTAGTCGGCAATGGTATCATTTAATCCCATGCACTACGGGAGAAATTTGAGACCAAAGAATTCCTGAGGGCCACTGCTTGCTCTAAGTGCAATGCCTCGGGAGACTTCTGTCAGGAGCCTAGCGGCTTTCAACCGCGACAGCTAACTCCTGCGGGATGTTTGGTGTCCATACTTACTGGCGTCCTCACAACGCTAAGTGGATGTTGTCCACAGGTAGGCAAACACCGAGCCCCACATTCAGGAGACCTGTATGAACGATCCTATCAGCATTAGAGTTGGAATTGGGTGTGCTAACGTCCGCATAAGTGCACCCCGTGGTAACGCTGGGAAACTATCCAGCGCAACGTACTGTCCTCAATGTCTAGGGAAGGACCGCCCTAAGCGTACAACCGGGCCATGTGTCGAGC | 9.54E+04 |
| Porcine reproductive and respiratory syndrome virus 2 (nucleic acid, lipid formulation; source: /note="Description of Unknown: Porcine reproductive and respiratory syndrome virus 2 sequence") DNA: ATGACGTATAGGTGTTGGCTCTATGCCTTGGCATTTGTATTGTCAGGAGCTGTGACCATTGGCACAGCCCAAAACTTGCTGCACAGAAACACCCTTCTGTGATAGCCTCCTTCAGGGGAGCTTAGGGTTTGTCCCTAGCACCTTGCTTCCGGAGTTGCACTGCTTTACGGTCTCTCCACCCCTTTAACC | 1.29E+05 |
| Kashmir bee virus: "an IRES is an IRES sequence of ... Kashmir bee virus" (nucleic acid, Kashmir bee virus) DNA: TACGTACAATTTTGACGCTTCGTTCATGCAACAATGAACTCACATGTGGCGCTCGGTAGTAACCAGAGGGGCGTCATTCCCCCGTATGGAGTGGAGAATATAAGCTACCGACTCGAGCTGTAGAATAATTCAGCAACTTATAACGAACACGAATTTTAGTCGACGAAACCATTTTAGCCTTTAATTCTATGATTTGATTATAATGATAAACAGCTCATGTAACTGTCTAAACTACATAAATACAACTGGATTACGAACCTTTAAGTAACTATCTTAGATGAAGTCTAGTAGTCTCCCAATATTTCCGTGAAAAGAATGAGGGACGAGATAGCTCTATTTAAAGACGTGAGGCTTTAAATTCTGATAAATACATTACCTGAGAATTCCTCCTTTAGGAGTTAGAATTTGAAAAGATTAGTACCTATACTTAATAGAATTTAAATATGTTAATAATGCTGAAGACAAGTATTTCGATTATTAACCTCTATATTTCTATATAAAGTATCTGTGAGTCTCAGTGGACATCACAGTAAGGTCGCAGTTAACTTGTAATCTTTTCATTCCTGTGTCGGAGCAGTGGTAATGGAGCCGGACGATTTCGCCAAAAC | 1.65E+05 |
| Lesavirus 1 (nucleic acid, lipid formulation; source: /note="Description of Unknown: Lesavirus 1 sequence") DNA: GTAACTAATAAGCAAGTTTTACTGCCTGCAAACTGCTTCAATGGGACCACCGCTTCGGCGACCCCTTTGTTGAGTTTGTATGTTTTTAAGTAATCTTTGCAACCATACGATTATTTTAGCCGCCTCTCTATAATGATCTTGTTATAGTGGGACGTGAAACATTGGTTTTTCTCACACACGTCCGGTCACCCGGGCGTGTGTTCTTCCGTAAGTCCTATCCACATACCATCGTGGGTAGGCCAGCATGTTTGCACAGGCTGTGACAGTGTGGGTGGGCTTTCCACCTCTCAACAACACACTGAATTGCAATGCACTCACGGAGGAAATGACAATTTGGTTATAGTTTTGAACTGTGCTAGTAATTTCTTTCACATTAAGCCATGTTGCCTGCGGAATCACATGTGGTAACACATGCCTCAGGGCCCAAAAGGCACGGGTTAGCAGCCCCTTCATGGTGTGTTAGAAGTGAAAACACATAGTATGAGCTATAATATCTTTGTTGTCTTCTCTGTAGTGTACCCCGCCAAATGTAAGGATGCCCAGCAGGTACCCATTTTATGGATCTGAGCTGGGGATTGATAGTGTATCTATAAATGCACTGATCAATTTAAAAAGCGTCTAAGTTTGGCACAAACACTGGGGACAGTGTTTTTCCTTTATTCTTTTATTTGATTA | 6.37E+06 |
| Harrier picornavirus 1 (nucleic acid, source: /note="Description of Unknown: Harrier picornavirus 1 sequence") DNA: GATGTGTGACGGTGTAATTACTTTCCGGATCCCACTTTCCTATTATAACTCTTTCATCCCAAGGTTAGGGAAAGAACCTGGCTCGGTACCACCAGACCCTCCGCCACGCTAGTGGACTCTCCGGAGATAACGGTACCCCCTTTGTAGTCACCTGTGCTGGTGAAGAACCACCTAGTATTGCTTGGGTGCGTGCCGCCTAGCTTCCATTTCTTCTGGAGCACTGTGCAATGAGGTTTCCCCACTTGGTAACAAGTGCCTCAGGTCCCGCAAGGATACTGTGGGGTGGTGTGACCGCAGGGAGCTGTCTCCACGGCTCCTCTAATGTTACGCCGCTATCCACAGGCCAGTGCGTGTCATCGATCCCGGATGACAGAGCTAGTATTGCGAACCCCCAAGTAAGAAAAGTGGCTAGTAACCTGATAGCTGGTGAAGAGGGTGGGTCAGTTGAGTAGATGCCCTAGAGGTACCCGAAAGGATCTGACTAGGGACCCGTGACTATACATTAGGTAAACCGGGTATAAAAACCATGAAAAACTGACCACTTTTCTTTTAACCTCTTCTTTCTTTTTATGTGTGTTAAGTGTTTTGAGTTTGGACTGTACCTTGCCCGCCTTTCTTGGATTTTCTCTATCGCTCTTCTTACACCTACTGTTATCAAGGCACTCTTTAGAGATA | 1.47E+05 |
| Hepacivirus P (nucleic acid, listed as Hepacivirus sp.) DNA: ACATGGGGGGGGGCTGACAGTGAGTACACTGTGCCAAGCAGGTGCTACGCTATGCCTAGGTGCTGCTGTAGGCCAAGGACATGTCCCAGTCATCCCAGGTGAGGGGGGGGGTTCCCCTCACCGCTGCCACTGCCTGATAGGGTCCTGCCGGAGGGTCTCGGTGTCCGGCTGTAC | 6.04E+05 |
| Miniopterus schreibersii picornavirus 1 (nucleic acid, lipid formulation; source: /note="Description of Unknown: Miniopterus schreibersii picornavirus 1 sequence") DNA: GTTGTCGACCCGTTGCTTGGTTTAAGCATGAGGTGGATTCCCCCGATTATGTCTACCCGTTACTATGGCGGGCGGTCGTTTCAGGGTGTTTCTACTGAGGACTGCACCAAGTCTTTATCTTTTATTCTCAGATCTCCGGCTGTTTGACGCTTGTAGGACAGCAGGACTATTTTCTCTTAATCTTTTTCTACCCACTAGGGTCCTATCCTAGTGGAGGGAGGGTGCCACCCCTTCTCTCTTTAGAGAGTGCGCCTGGCGGTCTTTCCGTCTCTGGAAAAAGGAGCACATGGCATGCTACAATTGGCACAAGAAAACAAGCTTTGCGGATTCTTTCTTTGTACTAGAGGAAGCTGTAGCGACCCTGTATGGCGAGCGGACTCCCCTCTCGGCGACGAGAGCCTCTCGGGCCAAAAGCCAAGTGTTAATAGCACCCATACAGGCGGCAGTACCCCACTGCCCTTTCTCAACATACAATGACTGATGAACCACTGTTGGTTTTTCTGACACCTTTGTAGTAGGATTCCAAGGAATGTCCTGAAGGTACCCTGTTAGCTTACGCGCAGGATCTGATCAGGAGTCTCTTTACAGTGCTGTACACTGTGCAAGGGATTAAAAATTGTTTGAGGAATCCCCGAGATAGTGGTCTATCTCTTCCTATTTTGTTTTACAGACACG | 6.05E+06 |
| Hubei picorna-like virus 2 (nucleic acid, source: /note="Description of Unknown: Hubei picorna-like virus 2 sequence") DNA: AGCAACTTCTTTCTGAAAACTAGCTAGAGTTCGACGATCTCTCTGGCTAATGACAAATAACCAATCAAAAAGTCAAATGTTCATGTATATATATATTTAGTAGTGACCTTTATTTAGAAAAACTTTAGATGATTTATCGTCAAGTTGCCCTTTGTGAAGCGATCAGCTTTTTATATCGTTTCATTTTTGTATACGTCTTAATTGACGTTGTAAGTACGTTTTGCATACCTCACATTGAGGATAGTATCGTTTCCTGACTAAGAAGTTAAACTAGTCTACCAATAGCAACCATATAGGATATAGCTTTGTTTTTAACAAGGTTTAATCTGATCTTATGCTCTTGCTTACGGTGTTTTATGTATAGAAAAGTTTTTATAAAAACTACATAATTGTCAAAAGAAAAAGCGTTACGTACTGACGCATTTATGTTCACAGTGTGACACAAACCTTCTATATTTTGATTGTAAAATAGGCTTTGCCTGACCATTTATCAAATACAAACTGTTTCAAACGCCTCTCCGAGCCATATTGGCCGACGCGAATCGACATAACAGGGTGAGTTTACAGCTGCAGTTGCAGCCGAGGATCCACTTATTTGAGAGAGAATTACTCTTAACGAAATTTTGAAGTCACTTCTACACAGTTAAGTCTGAGTAGGCGTTATCCAAACGTAAA | 1.95E+05 |
